From the supplement of paper PMC10724198
± gives the standard deviation of the averaged measurements.

What was measured:
Saccharomyces cerevisiae [1] = test: protein stability index of tFT-peptide fusion (C-terminal peptide) (PSI (0-1 scale)); higher = more stable (slower turnover)
Experimental: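 MPS profiling in S. cerevisiae of the tFT-X12 degron library: putative degron peptides plus stable controls, 12 aa, fused to the C-terminus of a sfGFP-mCherry timer. Cells are FACS-sorted into 8 mCherry/sfGFP bins and deep-sequenced. PSI runs from 0 (unstable) to 1 (stable). Backgrounds are wild type, das1Δ and doa10Δ at 30 °C, and wild type, das1Δ, cdc34-1 and cdc53-1 at 37 °C; 2-3 technical replicates each.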

Saccharomyces cerevisiae [2] = test: as above; conditions: genetic background: wild type; temperature: 30 C
[3] = genetic background: cdc34-1, temperature: 37 C
[4] = genetic background: cdc53-1, temperature: 37 C
[5] = genetic background: das1 deletion, temperature: 30 C
[6] = genetic background: das1 deletion, temperature: 37 C
[7] = genetic background: doa10 deletion, temperature: 30 C
[8] = genetic background: wild type, temperature: 30 C
[9] = genetic background: wild type, temperature: 37 C
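Also: PSI is a weighted mean of sequencing reads over stability bins, variants kept only with over 10 reads, mCherry proximal and sfGFP distal, peptide attached via GGGS linker.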

Sequence	protein stability index (Saccharomyces cerevisiae [1]; [3])	protein stability index (Saccharomyces cerevisiae [1]; [4])	protein stability index (Saccharomyces cerevisiae [1]; [5])	protein stability index (Saccharomyces cerevisiae [1]; [6])	protein stability index (Saccharomyces cerevisiae [1]; [7])	protein stability index (Saccharomyces cerevisiae [1]; [8])	protein stability index (Saccharomyces cerevisiae [1]; [9])	protein stability index (Saccharomyces cerevisiae [2])
FPVWTALLTVRA	0.0896 ± 0.022	0.128 ± 0.015	0.181 ± 0.035	0.259 ± 0.0096	0.14 ± 0.024	0.189 ± 0.014	0.22 ± 0.029	0.262 ± 0.016
FRCRFLLPFYSV	0.673 ± 0.013	0.724 ± 0.0096	0.632 ± 0.0089	0.733 ± 0.01	0.403 ± 0.013	0.438 ± 0.014	0.603 ± 0.0033	0.482 ± 0.019
FRLCQRPVFLLS	0.586 ± 0.054	0.669 ± 0.014	0.542 ± 0.018	0.676 ± 0.0091	0.182 ± 0.0059	0.22 ± 0.017	0.408 ± 0.02	0.35 ± 0.0061
FSCSRNVLVTVV	0.192 ± 0.029	0.197 ± 0.019	0.229 ± 0.029	0.344 ± 0.0087	0.178 ± 0.015	0.209 ± 0.013	0.256 ± 0.0056	0.32 ± 0.049
FSFPIIFFGMFL	0.445 ± 0.021	0.463 ± 0.0054	0.394 ± 0.02	0.542 ± 0.006	0.426 ± 0.019	0.324 ± 0.033	0.51 ± 0.021	0.415 ± 0.0083
FSFSFWALLWFP	0.495 ± 0.029	0.54 ± 0.017	0.438 ± 0.022	0.531 ± 0.0093	0.48 ± 0.031	0.429 ± 0.02	0.537 ± 0.02	0.466 ± 0.0093
FSFVVRMFFRIL	0.218 ± 0.009	0.266 ± 0.0039	0.39 ± 0.038	0.408 ± 0.022	0.0869 ± 0.019	0.0811 ± 0.015	0.0988 ± 0.0082	0.154 ± 0.014
FSLSLFPYPFSL	0.698 ± 0.022	0.764 ± 0.045	0.686 ± 0.02	0.765 ± 0.011	0.686 ± 0.01	0.672 ± 0.021	0.755 ± 0.018	0.755 ± 0.03
FSSFLGFIRFFV	0.661 ± 0.088	0.751 ± 0.0091	0.655 ± 0.022	0.751 ± 0.016	0.286 ± 0.018	0.315 ± 0.022	0.59 ± 0.04	0.426 ± 0.052
FTLFFVASVLDL	0.48 ± 0.021	0.518 ± 0.01	0.378 ± 0.03	0.53241 ± 0.00048	0.358 ± 0.007	0.386 ± 0.026	0.511 ± 0.011	0.446 ± 0.0073
FVGLFEYILLFV	0.186 ± 0.009	0.167 ± 0.029	0.201 ± 0.028	0.358 ± 0.0079	0.263 ± 0.0056	0.201 ± 0.028	0.348 ± 0.0072	0.29 ± 0.036
FVLLTFLFFWQF	0.349 ± 0.014	0.441 ± 0.028	0.321 ± 0.031	0.476 ± 0.019	0.287 ± 0.007	0.299 ± 0.018	0.441 ± 0.016	0.328 ± 0.03
FVLWYFCCVGCM	0.241 ± 0.017	0.305 ± 0.018	0.232 ± 0.026	0.366 ± 0.011	0.196 ± 0.015	0.226 ± 0.03	0.342 ± 0.03	0.321 ± 0.016
FVRCFWPFVFVF	0.17 ± 0.01	0.142 ± 0.021	0.222 ± 0.031	0.332 ± 0.0095	0.139 ± 0.0072	0.126 ± 0.0099	0.14 ± 0.012	0.203 ± 0.023
FVRGWGIVFSLA	0.571 ± 0.031	0.599 ± 0.023	0.438 ± 0.036	0.594 ± 0.015	0.225 ± 0.012	0.268 ± 0.016	0.467 ± 0.011	0.41 ± 0.01
FVWWFFFLSVVS	0.277 ± 0.0019	0.306 ± 0.023	0.265 ± 0.032	0.3987 ± 0.0029	0.255 ± 0.016	0.216 ± 0.018	0.334 ± 0.025	0.26 ± 0.018
FWILLRVLIFVL	0.176 ± 0.027	0.172 ± 0.0087	0.18 ± 0.033	0.321 ± 0.0095	0.182 ± 0.0047	0.175 ± 0.028	0.246 ± 0.03	0.266 ± 0.011
FYFMGFFFGLGM	0.589 ± 0.021	0.627 ± 0.052	0.519 ± 0.047	0.617 ± 0.057	0.481 ± 0.016	0.504 ± 0.016	0.597 ± 0.023	0.516 ± 0.046
FYLFPSLPLLLL	0.424 ± 0.018	0.432 ± 0.022	0.422 ± 0.018	0.544 ± 0.03	0.477 ± 0.023	0.339 ± 0.03	0.46 ± 0.0072	0.452 ± 0.044
FYLSFWFLIFFF	0.227 ± 0.011	0.251 ± 0.023	0.273 ± 0.031	0.353 ± 0.029	0.325 ± 0.036	0.215 ± 0.036	0.315 ± 0.017	0.312 ± 0.0092

Sequence	protein stability index (Saccharomyces cerevisiae [1]; [3])	protein stability index (Saccharomyces cerevisiae [1]; [4])	protein stability index (Saccharomyces cerevisiae [1]; [5])	protein stability index (Saccharomyces cerevisiae [1]; [6])	protein stability index (Saccharomyces cerevisiae [1]; [7])	protein stability index (Saccharomyces cerevisiae [1]; [8])	protein stability index (Saccharomyces cerevisiae [1]; [9])	protein stability index (Saccharomyces cerevisiae [2])
GCCFVCSVFWWG	0.407 ± 0.0055	0.493 ± 0.0055	0.348 ± 0.031	0.528 ± 0.0081	0.327 ± 0.014	0.353 ± 0.015	0.507 ± 0.011	0.431 ± 0.011
GCWRVELLVFMC	0.0459 ± 0.0044	0.205 ± 0.011	0.185 ± 0.03	0.33 ± 0.015	0.053 ± 0.02	0.0595 ± 0.017	0.0748 ± 0.03	0.0681 ± 0.02
GDFYCSSVVLVV	0.401 ± 0.013	0.401 ± 0.036	0.332 ± 0.032	0.484 ± 0.018	0.278 ± 0.014	0.32 ± 0.031	0.445 ± 0.0082	0.306 ± 0.0044
GEGISCLLRRLT	0.662 ± 0.013	0.709 ± 0.018	0.661 ± 0.024	0.713 ± 0.036	0.2625 ± 0.00058	0.286 ± 0.022	0.544 ± 0.033	0.413 ± 0.057
GFLAVTVACVWR	0.0513 ± 0.0097	0.136 ± 0.0021	0.154 ± 0.018	0.258 ± 0.013	0.13 ± 0.014	0.145 ± 0.037	0.213 ± 0.026	0.255 ± 0.048
GFLWFCGVPVGW	0.695 ± 0.026	0.7385 ± 0.0044	0.609 ± 0.017	0.72 ± 0.027	0.613 ± 0.031	0.613 ± 0.012	0.707 ± 0.018	0.571 ± 0.2
GFVSLFRLFIRL	0.241 ± 0.073	0.218 ± 0.02	0.352 ± 0.032	0.4652 ± 0.0042	0.405 ± 0.024	0.25 ± 0.013	0.3595 ± 0.0028	0.36 ± 0.066
GGGHGSSCSVCD	0.67 ± 0.035	0.74 ± 0.034	0.665 ± 0.023	0.69544 ± 0.00064	0.646 ± 0.013	0.645 ± 0.0097	0.702 ± 0.019	0.744 ± 0.032
GGGWGVFVVLWW	0.193 ± 0.012	0.325 ± 0.0065	0.216 ± 0.034	0.4026 ± 0.0031	0.194 ± 0.0027	0.213 ± 0.031	0.355 ± 0.038	0.318 ± 0.028
GGIVLLVRVCGP	0.55 ± 0.016	0.636 ± 0.0091	0.436 ± 0.019	0.6149 ± 0.0012	0.389 ± 0.0083	0.422 ± 0.018	0.601 ± 0.025	0.46 ± 0.011
GGLLSQLLRSIG	0.664 ± 0.026	0.723 ± 0.019	0.617 ± 0.024	0.743 ± 0.0075	0.2341 ± 0.0008	0.279 ± 0.055	0.5807 ± 0.0052	0.425 ± 0.047
GGRWRRRGFFFS	0.6973 ± 0.0024	0.72 ± 0.01	0.702 ± 0.032	0.709 ± 0.026	0.627 ± 0.0095	0.628 ± 0.01	0.673 ± 0.014	0.518 ± 0.097
GGYCQMFFLYFR	0.0593 ± 0.039	0.0464 ± 0.018	0.0923 ± 0.042	0.0948 ± 0.0031	0.575 ± 0.021	0.0833 ± 0.0047	0.0907 ± 0.031	0.141 ± 0.021
GHHLRVRVILTA	0.4104 ± 0.00042	0.435 ± 0.0077	0.311 ± 0.026	0.47 ± 0.013	0.16006 ± 0.00015	0.189 ± 0.019	0.297 ± 0.013	0.275 ± 0.054
GICLVLVSDIWI	0.579 ± 0.032	0.558 ± 0.0064	0.413 ± 0.026	0.599 ± 0.018	0.374 ± 0.04	0.39 ± 0.014	0.568 ± 0.029	0.441 ± 0.018
GIGYMFLNVWLV	0.234 ± 0.036	0.302 ± 0.0072	0.246 ± 0.024	0.4208 ± 0.00089	0.0963 ± 0.011	0.0848 ± 0.015	0.122 ± 0.017	0.153 ± 0.022
GKGVFGGLFFLV	0.667 ± 0.029	0.741 ± 0.019	0.623 ± 0.027	0.755 ± 0.013	0.182 ± 0.0027	0.211 ± 0.021	0.465 ± 0.011	0.294 ± 0.0074
GLGLIRTSRLLC	0.609 ± 0.008	0.695 ± 0.026	0.627 ± 0.02	0.718 ± 0.0034	0.148 ± 0.027	0.186 ± 0.029	0.296 ± 0.027	0.278 ± 0.037
GLLAFVCISHTS	0.497 ± 0.044	0.542 ± 0.0086	0.378 ± 0.033	0.575 ± 0.019	0.312 ± 0.0026	0.344 ± 0.026	0.5396 ± 0.0015	0.458 ± 0.039
